Measurements taken from patent publication US7989417B2, “Linkers for radiopharmaceutical compounds” (Bracco Imaging S.p.A., priority 2003, dated 2011).

Key:
[1] = biological target: human serum albumin (Homo sapiens, UniProt P02768); assay: Binding to human serum albumin by ultrafiltration; details: 1 nM insulin solution in 0.6 mM human serum albumin, spiked with 125I-labeled insulin
Procedure: Binding to human serum albumin is determined by ultrafiltration according to Whitlam J. B. & Brown K. F.: J. Pharm. Sci. 70, 146-150, 1981, applying 1 nM bovine insulin solution in 0.6 mM human serum albumin, spiked with ^125I-labeled insulin. 95% of the insulin is bound. It is evident that such binding to albumin will reduce the renal elimination of the modified insulin (Compounds B and D) relative to that of native insulin.

[2] = tested on: rat epididymal fat cells; assay: Fat cell assay: activation of glucose oxidation; format: cell-based; details: buffers containing serum albumin; compared with native insulin
[3] = Tracer dose biodistribution in xenografted PC3 tumor-bearing mice; details: Lu-177 labelled; for uptake in the tumor (in words): 1 and 24 h; for uptake in the mouse pancreas (in words): compared with L134, pancreas known to have GRP receptors
Procedure: In all studies, mice were administered 100 μL of ^177Lu-labelled test compound at 200 μCi/kg, i.v., with a residence time of 1 and 24 h per group (n=3-4). Tissues were analyzed in an LKB 1282 CompuGamma counter with appropriate standards.

[4] = tested on: PC3 tumor; assay: Radiotherapy studies in PC3 tumor-bearing nude mouse model; format: in vivo; details: Lu-177 labelled; for survival, short term efficacy study: 30 mCi/kg i.v. or s.c., up to 30 days, versus no treatment and versus same dose of L134
Procedure: A. Short Term Efficacy Studies: • Radiotherapy studies were performed using the PC3 tumor-bearing nude mouse model. […] (n=12 for each treatment group and n=36 for the untreated control group). For the first study, mice were administered 100 μL of ^177Lu-labelled compound of the invention at 30 mCi/kg, i.v, or s.c. under sterile conditions. The subjects were housed in a barrier environment for up to 30 days. Body weight and tumor size (by caliper measurement) were collected on each subject 3 times per week for the duration of the study. Criteria for early termination included: death; loss of total body weight (TBW) equal to or greater than 20%; tumor size equal to or greater than 2 cm^3.

[5] = tested on: rat epididymal fat cells; details: bound to a 1:1 conjugate of avidin and ferritin; compared with insulin; cited from earlier work

Molecule | activity in fat cell assay (activation of glucose oxidation) [2] | uptake in the tumor (in words) ([3]; compared with control L134) | uptake in the mouse pancreas (in words) [3] | survival, short term efficacy study [4] | further results
Bovine N^eB29-[4-[[(3β,5β,12α)-23-carboxy-12-hydroxy-24-norcholan-3-yl]amino]-4-oxobutanoyl]-insulin [Compound B] | identical activity to native insulin | – | – | – | bound to human serum albumin [1]: 95%
CSCC[C@H](NC(=O)[C@H](CC(C)C)NC(=O)[C@H](Cc1c[nH]cn1)NC(=O)CNC(=O)[C@@H](NC(=O)[C@H](C)NC(=O)[C@H](Cc1c[nH]c2ccccc12)NC(=O)[C@H](CCC(N)=O)NC(=O)CC[C@@H](C)[C@H]1CC[C@H]2[C@@H]3CC[C@@H]4C[C@@H](NC(=O)CNC(=O)CN5CCN(CC(=O)O)CCN(CC(=O)O)CCN(CC(=O)O)CC5)CC[C@]4(C)[C@H]3C[C@H](O)[C@]12C)C(C)C)C(N)=O [Compound L63, N-[(3β,5β,12α)-3-[[[[[4,7,10-Tris(carboxymethyl)-1,4,7,10-tetraazacyclododec-1-yl]acetyl]amino]acetyl]amino]-12-hydroxy-24-oxocholan-24-yl]-L-glutaminyl-L-tryptophyl-L-alanyl-L-valyl-glycyl-L-histidyl-L-leucyl-L-methioninamide] | – | high tumour uptake | much higher | increased survival | distribution of radioactivity in blood, liver and kidneys (in words) ([3]; compared with control L134): increased blood and liver values at early times
Bovine 1-[[(3β,5β,12α)-23-[(1,1-dimethyl)ethoxycarbonyl]-12-hydroxy-24-norcholan-3-yl]amino]carbonyl-3,5-bis[[4-(insulin-N^εB29-yl)-1,4-dioxobutyl]amino]benzene [Compound D] | identical activity to native insulin | – | – | – | –
N^εB29-biotinylinsulin | – | – | – | – | dose-response curve for the activation of glucose oxidation [5]: same dose-response curve as insulin
CSCC[C@H](NC(=O)[C@H](CC(C)C)NC(=O)[C@H](Cc1c[nH]cn1)NC(=O)CNC(=O)[C@@H](NC(=O)[C@H](C)NC(=O)[C@H](Cc1c[nH]c2ccccc12)NC(=O)[C@H](CCC(N)=O)NC(=O)CC[C@@H](C)[C@H]1CC[C@H]2[C@@H]3[C@H](O)C[C@@H]4C[C@@H](NC(=O)CNC(=O)CN5CCN(CC(=O)O)CCN(CC(=O)O)CCN(CC(=O)O)CC5)CC[C@]4(C)[C@H]3C[C@H](O)[C@]12C)C(C)C)C(N)=O [Compound L64, N-[(3β,5β,7α,12α)-3-[[[[[4,7,10-Tris(carboxymethyl)-1,4,7,10-tetraazacyclododec-1-yl]acetyl]amino]acetyl]amino]-7,12-dihydroxy-24-oxocholan-24-yl]-L-glutaminyl-L-tryptophyl-L-alanyl-L-valyl-glycyl-L-histidyl-L-leucyl-L-methioninamide] | – | much higher | much higher | increased survival | survival, repeat study ([4]; same dose, n=46, followed longer, relative to controls (n=36), p<0.0001): significantly increased survival
